From patent publication US20060134801A1, “Methods and compositions involving MDA-7” (Board of Regents, The University of Texas System, priority 2003, published 2006)

What was measured:
[1] = test system: IRF-1 and IRF-2 in MeWo cells; assay: Immunoblotting of IRF-1 and IRF-2; assay type: cell-based, human; conditions: within 4 h
Experimental: Two×10^6 cultured melanoma cell lines were rinsed twice in ice-cold PBS and lysed in 60 μl of lysis buffer [25 mM Tris, 140 mM NaCl, and 1% NP40 (pH 7.5)] containing 5 mM EDTA, 0.2 mM orthovanadate, 10 mM NaF, leupeptin, aprotinin, and phenylmethylsulfonyl fluoride for 10 min on ice. Equal amounts of total protein (measured with DC Protein Assay Reagent; Bio-Rad Labs, Hercules, Calif.) were loaded on a standard 10% SDS polyacrylamide gel, and fractionated proteins were electroblotted onto a nitrocellulose membrane. Nitrocellulose membranes were blocked for 1 h at room temperature using 5% dry milk in 1× PBS and washed three times for 5 min each in PBS containing 0.05% Tween 20 at room temperature. The membranes were incubated overnight at 4° C. in a sealed bag with a 1:2000 dilution of IRF-1 and IRF-2 polyclonal antibodies in 10 ml of 5% dry milk/0.1% Tween 20 in 1× PBS. The membranes were washed three times for 5 min each in PBS containing 0.05% Tween 20, and then incubated with peroxidase-conjugated antirabbit IgG secondary antibody (Transduction Laboratories) at 1:2000 dilution in PBS with 5% dry milk and 0.1 % Tween 20 for 45 min at room temperature. The blots were visualized using an enhanced chemiluminescence detection kit (Amersham, Arlington Heights, Ill.).

A375 [2] = assay: Trypan blue viability; assay type: cell-based, human; conditions: 40 ng/ml, 3 days
Text: (§1) rhMDA-7 (IL-24) protein was purified from 293-mda7 cells using affinity chromatography. Various lots of protein ranged from 30% ->80% purity based upon silver stain. The rhMDA-7 protein was applied to melanoma cell lines, and cells assessed for viability using the Trypan blue assay. […] Treatment of melanoma cells with rhMDA-7 results in rapid activation (via phosphorylation) of STAT3. The cytotoxicity observed in melanoma cells is inhibited by anti-MDA-7 antibodies.
(§2) The mechanism of the anti-tumor activity of rhMDA-7 was also evaluated. Melanoma cells were treated with rhMDA-7 protein and assessed for apoptosis using the TUNEL assay. […] These studies were performed with purified rhMDA-7 protein. The melanoma cells have also been treated with supernatant from 293-mda7 cells or control 293 cells. Only the 293-mda7 supernatant causes cell killing.

SK-Mel-1 [3] = assay: Trypan blue viability; assay type: cell-based, human; conditions: 40 ng/ml, 3 days
Text: as §1, §2

WM35 [4] = assay: Trypan blue viability; assay type: cell-based, human; conditions: 40 ng/ml, 3 days
Text: as §1, §2

WM793 [5] = assay: Trypan blue viability; assay type: cell-based, human; conditions: 40 ng/ml, 3 days
Text: as §1, §2

A375.S2 [6] = assay: Trypan blue viability; assay type: cell-based, human; conditions: 40 ng/ml, 3 days
Text: as §1, §2

MeWo [7] = assay: Trypan blue viability; assay type: cell-based, human; conditions: 40 ng/ml, 3 days
Text: as §1, §2

[8] = test system: A549 cells and CCD16 cells; assay: Clonogenic survival with MDA-7 conditioned medium and radiation; assay type: cell-based, human; conditions: 10 ng/ml
Experimental: FIG. 60. Clonogenic survival of A549 cells (A) and CCD16 cells (B). Cells were serum starved for 12 hours and treated with conditioned medium containing mda7 protein (10 ng/ml). Twelve hours later, cells were irradiated, harvested and plated in regular medium. After incubation for 14 days, colonies were counted and survival.
Twelve hours after seeding HUVECs in 4-well plates (Nunc, Roskilde, Denmark), medium was replaced with serum/growth factor-free medium. After serum/growth factor starvation for 12 hours, cells were treated with complete medium containing either MDA-7 protein (10 ng/ml) (removed from cultures of 293 cells), angiostatin (100 ng/ml), or endostatin (100 ng/ml). Twelve hours later, cells were irradiated with ^137CS unit (3.4 Gy/min) at room temperature, trypsinized and counted. Known numbers of cells were replated in 60 mm culture dishes and incubated to allow macroscopic colony development. Colonies were counted after 14 days, and the percent plating efficiency and surviving fractions following given treatments were calculated based on the survival of non-irradiated cells.

PAC1 SMC = assay: Cell death after recombinant MDA-7; assay type: cell-based, rat
Experimental: Cell viability was determined using the Trypan-blue exclusion assay. Briefly, total cells (suspension+trypsinized) were mixed 1:1 with Trypan blue solution (Gibco-BRL) and then observed under a hemocytometer via light microscopy. The percent of blue cells (dead cells) were counted (an average count of 3-5 fields were made).
Cells are plated in chamber slides and treated with MDA-7 protein for 60 minutes and then washed thoroughly with PBS (3×). The cells are then fixed with methanol:acetic acid (95:5 vol:vol) and stained with anti-pStat3 monoclonal antibody (1:1000 dilution; Cell Signalling) for 1 h at 4° C. The cells are then washed 3× with PBS and treated with secondary antibody (1:1000 dilution; Texas Red-conjugated-Rabbit anti mouse IgG; Sigma) for 1 h at 4° C. The cells are then washed and examined under fluorescence microscopy.

A375 [9] = assay: TUNEL apoptosis assay; assay type: cell-based, human; conditions: 40 ng/ml, 3 days
Experimental: as §2

SK-Mel-1 [10] = assay: TUNEL apoptosis assay; assay type: cell-based, human; conditions: 40 ng/ml, 3 days
Experimental: as §2

WM35 [11] = assay: TUNEL apoptosis assay; assay type: cell-based, human; conditions: 40 ng/ml, 3 days
Experimental: as §2

WM793 [12] = assay: TUNEL apoptosis assay; assay type: cell-based, human; conditions: 40 ng/ml, 3 days
Experimental: as §2

A375.S2 [13] = assay: TUNEL apoptosis assay; assay type: cell-based, human; conditions: 40 ng/ml, 3 days
Experimental: as §2

MeWo [14] = assay: TUNEL apoptosis assay; assay type: cell-based, human; conditions: 40 ng/ml, 3 days
Experimental: as §2

HUVEC = assay: Endothelial cell migration assay (Transwell, VEGF); assay type: cell-based, human; conditions: VEGF 100 ng/ml
Experimental: Cell migration assays were performed using HUVEC. Cells were starved overnight in basal medium containing 0.5% fetal bovine serum, collected, resuspended in the same medium, and seeded at a concentration of 10^5 cells/well on the upper surface of a 24-well transwell insert with a pore size of 8 μm (Millipore, Cambridge, Mass.). The insert was placed in a six-well plate that contained medium plus PBS, medium plus VEGF (100 ng/ml) or VEGF plus sMDA-7 (10 or 50 ng/ml). The plates containing the transwell insert were incubated at 37° C. overnight to allow migration. The next day, the wells were disassembled, membranes were fixed in crystal violet, and the number of cells that had migrated to the lower wells was counted under high-power magnification (×40).

B1: sMDA-7: soluble secreted human MDA-7 (IL-24) protein purified from stably transfected 293-mda-7 cells (protein)
chain: AQGQEFHFGPCQVKGVVPQKLWEAFWAVKDTMQAQDNITSARLLQQEVLQNVSDAESCYLVHTLLEFYLKTVFKNYHNRTVEVRTLKSFSTLANNFVLIVSQLQPSQENEMFSIRDSAHRRFLLFRRAFKQLDVEAALTKALGEVDILLTWMQKFYKL
fall in IRF-1 expression [1]: ~4 fold | increase in IRF-2 expression [1]: 4.7 fold | % Dead (A375 [2]): 26.6% | % Dead (SK-Mel-1 [3]): 5.2% | % Dead (WM35 [4]): 17.6% | % Dead (WM793 [5]): 5.2% | % Dead (A375.S2 [6]): 22.2% | % Dead (MeWo [7]): 20% | radiosensitizing effects [8]: does not produce radiosensitizing effects | cell death (PAC1 SMC): No statistically significant increase in cell death | % TUNEL Positive (A375 [9]): 18.78% | % TUNEL Positive (SK-Mel-1 [10]): 5.0% | % TUNEL Positive (WM35 [11]): 17.88% | % TUNEL Positive (WM793 [12]): 9.88% | % TUNEL Positive (A375.S2 [13]): 12.3% | % TUNEL Positive (MeWo [14]): 12.11% | concentration giving complete inhibition of migration (HUVEC): 50 ng/mL | endothelial cell migration in response to VEGF (HUVEC): inhibited endothelial cell migration significantly
